{"source": "the Immune Epitope Database (IEDB)", "key": {"[1]": {"molecular_target": "HLA-A*03:01", "experiment": "IEDB peptide-MHC binding, purified MHC/direct/fluorescence; filed as Kd, often an IC50 or EC50 that approximates it; ≥ and ≤ were set here for values at or beyond the usual limits of such assays"}, "[2]": {"molecular_target": "HLA-A*31:01", "experiment": "IEDB peptide-MHC binding, purified MHC/direct/fluorescence; filed as Kd, often an IC50 or EC50 that approximates it; ≥ and ≤ were set here for values at or beyond the usual limits of such assays"}, "[3]": {"molecular_target": "HLA-B*48:01", "experiment": "IEDB peptide-MHC binding, purified MHC/direct/fluorescence; filed as Kd, often an IC50 or EC50 that approximates it; ≥ and ≤ were set here for values at or beyond the usual limits of such assays", "settings": "source organism: Listeria monocytogenes"}, "[4]": {"molecular_target": "HLA-B*08:03", "experiment": "IEDB peptide-MHC binding, purified MHC/direct/fluorescence; filed as Kd, often an IC50 or EC50 that approximates it; ≥ and ≤ were set here for values at or beyond the usual limits of such assays", "settings": "source organism: Listeria monocytogenes serotype 4b str. H7858"}, "[5]": {"molecular_target": "HLA-B*40:01", "experiment": "IEDB peptide-MHC binding, purified MHC/direct/fluorescence; filed as Kd, often an IC50 or EC50 that approximates it; ≥ and ≤ were set here for values at or beyond the usual limits of such assays"}, "[6]": {"molecular_target": "HLA-A*68:02", "experiment": "IEDB peptide-MHC binding, purified MHC/direct/fluorescence; filed as Kd, often an IC50 or EC50 that approximates it; ≥ and ≤ were set here for values at or beyond the usual limits of such assays", "settings": "source organism: Listeria monocytogenes"}, "[7]": {"molecular_target": "HLA-B*15:01", "experiment": "IEDB peptide-MHC binding, purified MHC/direct/fluorescence; filed as Kd, often an IC50 or EC50 that approximates it; ≥ and ≤ were set here for values at or beyond the usual limits of such assays"}, "[8]": {"molecular_target": "HLA-B*46:01", "experiment": "IEDB peptide-MHC binding, purified MHC/direct/fluorescence; filed as Kd, often an IC50 or EC50 that approximates it; ≥ and ≤ were set here for values at or beyond the usual limits of such assays"}, "[9]": {"molecular_target": "HLA-A*01:01", "experiment": "IEDB peptide-MHC binding, purified MHC/direct/fluorescence; filed as Kd, often an IC50 or EC50 that approximates it; ≥ and ≤ were set here for values at or beyond the usual limits of such assays"}, "[10]": {"molecular_target": "HLA-B*57:01", "experiment": "IEDB peptide-MHC binding, purified MHC/direct/fluorescence; filed as Kd, often an IC50 or EC50 that approximates it; ≥ and ≤ were set here for values at or beyond the usual limits of such assays", "settings": "source organism: Listeria monocytogenes"}, "[11]": {"molecular_target": "HLA-B*18:01", "experiment": "IEDB peptide-MHC binding, purified MHC/direct/fluorescence; filed as Kd, often an IC50 or EC50 that approximates it; ≥ and ≤ were set here for values at or beyond the usual limits of such assays"}, "[12]": {"molecular_target": "HLA-B*27:05", "experiment": "IEDB peptide-MHC binding, purified MHC/direct/fluorescence; filed as Kd, often an IC50 or EC50 that approximates it; ≥ and ≤ were set here for values at or beyond the usual limits of such assays"}, "[13]": {"molecular_target": "HLA-B*58:01", "experiment": "IEDB peptide-MHC binding, purified MHC/direct/fluorescence; filed as Kd, often an IC50 or EC50 that approximates it; ≥ and ≤ were set here for values at or beyond the usual limits of such assays"}, "[14]": {"molecular_target": "HLA-A*02:01", "experiment": "IEDB peptide-MHC binding, purified MHC/direct/fluorescence; filed as Kd, often an IC50 or EC50 that approximates it; ≥ and ≤ were set here for values at or beyond the usual limits of such assays"}, "[15]": {"molecular_target": "HLA-B*07:02", "experiment": "IEDB peptide-MHC binding, purified MHC/direct/fluorescence; filed as Kd, often an IC50 or EC50 that approximates it; ≥ and ≤ were set here for values at or beyond the usual limits of such assays"}, "[16]": {"molecular_target": "HLA-A*11:01", "experiment": "IEDB peptide-MHC binding, purified MHC/direct/fluorescence; filed as Kd, often an IC50 or EC50 that approximates it; ≥ and ≤ were set here for values at or beyond the usual limits of such assays"}, "[17]": {"molecular_target": "HLA-B*15:17", "experiment": "IEDB peptide-MHC binding, purified MHC/competitive/fluorescence; filed as Kd, often an IC50 or EC50 that approximates it; ≥ and ≤ were set here for values at or beyond the usual limits of such assays", "settings": "source organism: Listeria monocytogenes serotype 4b str. CLIP 80459"}, "[18]": {"molecular_target": "HLA-B*08:01", "experiment": "IEDB peptide-MHC binding, purified MHC/direct/fluorescence; filed as Kd, often an IC50 or EC50 that approximates it; ≥ and ≤ were set here for values at or beyond the usual limits of such assays", "settings": "source organism: Pseudomonas fluorescens"}, "[19]": {"molecular_target": "HLA-A*69:01", "experiment": "IEDB peptide-MHC binding, purified MHC/direct/fluorescence; filed as Kd, often an IC50 or EC50 that approximates it; ≥ and ≤ were set here for values at or beyond the usual limits of such assays"}, "[20]": {"molecular_target": "HLA-B*35:01", "experiment": "IEDB peptide-MHC binding, purified MHC/direct/fluorescence; filed as Kd, often an IC50 or EC50 that approximates it; ≥ and ≤ were set here for values at or beyond the usual limits of such assays", "settings": "source organism: Pseudomonas fluorescens"}, "[21]": {"molecular_target": "HLA-B*15:02", "experiment": "IEDB peptide-MHC binding, purified MHC/competitive/fluorescence; filed as Kd, often an IC50 or EC50 that approximates it; ≥ and ≤ were set here for values at or beyond the usual limits of such assays", "settings": "source organism: Pseudomonas fluorescens"}, "[22]": {"molecular_target": "HLA-B*44:02", "experiment": "IEDB peptide-MHC binding, purified MHC/direct/fluorescence; filed as Kd, often an IC50 or EC50 that approximates it; ≥ and ≤ were set here for values at or beyond the usual limits of such assays", "settings": "source organism: Yersinia pestis"}, "[23]": {"molecular_target": "HLA-A*02:12", "experiment": "IEDB peptide-MHC binding, purified MHC/direct/fluorescence; filed as Kd, often an IC50 or EC50 that approximates it; ≥ and ≤ were set here for values at or beyond the usual limits of such assays", "settings": "source organism: Yersinia pestis CA88-4125"}, "[24]": {"molecular_target": "HLA-A*02:06", "experiment": "IEDB peptide-MHC binding, purified MHC/direct/fluorescence; filed as Kd, often an IC50 or EC50 that approximates it; ≥ and ≤ were set here for values at or beyond the usual limits of such assays", "settings": "source organism: Yersinia pestis CA88-4125"}, "[25]": {"molecular_target": "HLA-A*24:02", "experiment": "IEDB peptide-MHC binding, purified MHC/direct/fluorescence; filed as Kd, often an IC50 or EC50 that approximates it; ≥ and ≤ were set here for values at or beyond the usual limits of such assays", "settings": "source organism: Yersinia pestis"}, "[26]": {"molecular_target": "HLA-A*02:19", "experiment": "IEDB peptide-MHC binding, purified MHC/direct/fluorescence; filed as Kd, often an IC50 or EC50 that approximates it; ≥ and ≤ were set here for values at or beyond the usual limits of such assays", "settings": "source organism: Yersinia pestis CA88-4125"}, "[27]": {"molecular_target": "HLA-A*02:16", "experiment": "IEDB peptide-MHC binding, purified MHC/direct/fluorescence; filed as Kd, often an IC50 or EC50 that approximates it; ≥ and ≤ were set here for values at or beyond the usual limits of such assays", "settings": "source organism: Yersinia pestis CA88-4125"}, "[28]": {"molecular_target": "HLA-A*02:11", "experiment": "IEDB peptide-MHC binding, purified MHC/direct/fluorescence; filed as Kd, often an IC50 or EC50 that approximates it; ≥ and ≤ were set here for values at or beyond the usual limits of such assays", "settings": "source organism: Yersinia pestis CA88-4125"}, "[29]": {"molecular_target": "HLA-A*02:50", "experiment": "IEDB peptide-MHC binding, purified MHC/competitive/fluorescence; filed as Kd, often an IC50 or EC50 that approximates it; ≥ and ≤ were set here for values at or beyond the usual limits of such assays", "settings": "source organism: Yersinia pestis Nepal516"}, "[30]": {"settings": "source organism: Listeria monocytogenes"}, "[31]": {"settings": "source organism: Pseudomonas fluorescens"}, "[32]": {"settings": "source organism: Yersinia pestis"}}}
{"sequence": "EIEIEKNKK", "values": [{"measurement": "Kd", "setting": "[1]; [30]", "value": "≥ 20", "unit": "µM"}, {"measurement": "Kd", "setting": "[2]; [30]", "value": "≥ 20", "unit": "µM"}, {"measurement": "Kd", "setting": "[3]", "value": "≥ 20", "unit": "µM"}, {"measurement": "Kd", "setting": "[4]", "value": "≥ 20", "unit": "µM"}, {"measurement": "Kd", "setting": "[5]; [30]", "value": "≥ 20", "unit": "µM"}, {"measurement": "Kd", "setting": "[6]", "value": "≥ 20", "unit": "µM"}, {"measurement": "Kd", "setting": "[7]; [30]", "value": "≥ 20", "unit": "µM"}, {"measurement": "Kd", "setting": "[8]; [30]", "value": "≥ 20", "unit": "µM"}, {"measurement": "Kd", "setting": "[9]; [30]", "value": "≥ 20", "unit": "µM"}, {"measurement": "Kd", "setting": "[10]", "value": "≥ 20", "unit": "µM"}, {"measurement": "Kd", "setting": "[11]; [30]", "value": "≥ 20", "unit": "µM"}, {"measurement": "Kd", "setting": "[12]; [30]", "value": "≥ 20", "unit": "µM"}, {"measurement": "Kd", "setting": "[13]; [30]", "value": "≥ 20", "unit": "µM"}, {"measurement": "Kd", "setting": "[14]; [30]", "value": "≥ 20", "unit": "µM"}, {"measurement": "Kd", "setting": "[15]; [30]", "value": "≥ 20", "unit": "µM"}, {"measurement": "Kd", "setting": "[16]; [30]", "value": "≥ 20", "unit": "µM"}, {"measurement": "Kd", "setting": "[17]", "value": "≥ 20", "unit": "µM"}]}
{"sequence": "FVSVYFSDY", "values": [{"measurement": "Kd", "setting": "[1]; [31]", "value": "≥ 20", "unit": "µM"}, {"measurement": "Kd", "setting": "[2]; [31]", "value": "≥ 20", "unit": "µM"}, {"measurement": "Kd", "setting": "[18]", "value": "≥ 20", "unit": "µM"}, {"measurement": "Kd", "setting": "[5]; [31]", "value": "≥ 20", "unit": "µM"}, {"measurement": "Kd", "setting": "[7]; [31]", "value": 0.25, "unit": "µM"}, {"measurement": "Kd", "setting": "[9]; [31]", "value": 0.135, "unit": "µM"}, {"measurement": "Kd", "setting": "[19]; [31]", "value": "≥ 20", "unit": "µM"}, {"measurement": "Kd", "setting": "[20]", "value": 0.0654, "unit": "µM"}, {"measurement": "Kd", "setting": "[12]; [31]", "value": "≥ 20", "unit": "µM"}, {"measurement": "Kd", "setting": "[13]; [31]", "value": "≥ 20", "unit": "µM"}, {"measurement": "Kd", "setting": "[14]; [31]", "value": "≥ 20", "unit": "µM"}, {"measurement": "Kd", "setting": "[15]; [31]", "value": "≥ 20", "unit": "µM"}, {"measurement": "Kd", "setting": "[16]; [31]", "value": "≥ 20", "unit": "µM"}, {"measurement": "Kd", "setting": "[21]", "value": 0.04, "unit": "µM"}]}
{"sequence": "AMQDPNPEV", "values": [{"measurement": "Kd", "setting": "[22]", "value": "≥ 20", "unit": "µM"}, {"measurement": "Kd", "setting": "[1]; [32]", "value": "≥ 20", "unit": "µM"}, {"measurement": "Kd", "setting": "[2]; [32]", "value": "≥ 20", "unit": "µM"}, {"measurement": "Kd", "setting": "[5]; [32]", "value": "≥ 20", "unit": "µM"}, {"measurement": "Kd", "setting": "[7]; [32]", "value": 0.319, "unit": "µM"}, {"measurement": "Kd", "setting": "[8]; [32]", "value": "≥ 20", "unit": "µM"}, {"measurement": "Kd", "setting": "[9]; [32]", "value": "≥ 20", "unit": "µM"}, {"measurement": "Kd", "setting": "[23]", "value": 0.006, "unit": "µM"}, {"measurement": "Kd", "setting": "[24]", "value": 0.04, "unit": "µM"}, {"measurement": "Kd", "setting": "[19]; [32]", "value": 5.29, "unit": "µM"}, {"measurement": "Kd", "setting": "[25]", "value": "≥ 20", "unit": "µM"}, {"measurement": "Kd", "setting": "[26]", "value": 0.042, "unit": "µM"}, {"measurement": "Kd", "setting": "[11]; [32]", "value": "≥ 20", "unit": "µM"}, {"measurement": "Kd", "setting": "[12]; [32]", "value": "≥ 20", "unit": "µM"}, {"measurement": "Kd", "setting": "[27]", "value": "≤ 0.001", "unit": "µM"}, {"measurement": "Kd", "setting": "[13]; [32]", "value": "≥ 20", "unit": "µM"}, {"measurement": "Kd", "setting": "[14]; [32]", "value": 0.189, "unit": "µM"}, {"measurement": "Kd", "setting": "[15]; [32]", "value": "≥ 20", "unit": "µM"}, {"measurement": "Kd", "setting": "[28]", "value": 0.005, "unit": "µM"}, {"measurement": "Kd", "setting": "[16]; [32]", "value": "≥ 20", "unit": "µM"}, {"measurement": "Kd", "setting": "[29]", "value": 0.0011, "unit": "µM"}]}
